{"source": "patent US20140017714", "proteins": {"B1": {"name": "atherosclerotic form of PAPP-A (protein)", "chain": "EARGATEEPSPPSRALYFSGRGEQLRLRADLELPRDAFTLQVWLRAEGGQRSPAVITGLYDKCSYISRDRGWVVGIHTISDQDNKDPRYFFSLKTDRARQVTTINAHRSYLPGQWVYLAATYDGQFMKLYVNGAQVATSGEQVGGIFSPLTQKCKVLMLGGSALNHNYRGYIEHFSLWKVARTQREILSDMETHGAHTALPQLLLQENWDNVKHAWSPMKDGSSPKVEFSNAHGFLLDTSLEPPLCGQTLCDNTEVIASYNQLSSFRQPKVVRYRVVNLYEDDHKNPTVTREQVDFQHHQLAEAFKQYNISWELDVLEVSNSSLRRRLILANCDISKIGDENCDPECNHTLTGHDGGDCRHLRHPAFVKKQHNGVCDMDCNYERFNFDGGECCDPEITNVTQTCFDPDSPHRAYLDVNELKNILKLDGSTHLNIFFAKSSEEELAGVATWPWDKEALMHLGGIVLNPSFYGMPGHTHTMIHEIGHSLGLYHVFRGISEIQSCSDPCMETEPSFETGDLCNDTNPAPKHKSCGDPGPGNDTCGFHSFFNTPYNNFMSYADDDCTDSFTPNQVARMHCYLDLVYQGWQPSRKPAPVALAPQVLGHTTDSVTLEWFPPIDGHFFERELGSACHLCLEGRILVQYASNASSPMPCSPSGHWSPREAEGHPDVEQPCKSSVRTWSPNSAVNPHTVPPACPEPQGCYLELEFLYPLVPESLTIWVTFVSTDWDSSGAVNDIKLLAVSGKNISLGPQNVFCDVPLTIRLWDVGEEVYGIQIYTLDEHLEIDAAMLTSTADTPLCLQCKPLKYKVVRDPPLQMDVASILHLNRKFVDMDLNLGSVYQYWVITISGTEESEPSPAVTYIHGSGYCGDGIIQKDQGEQCDDMNKINGDGCSLFCRQEVSFNCIDEPSRCYFHDGDGVCEEFEQKTSIKDCGVYTPQGFLDQWASNASVSHQDQQCPGWVIIGQPAASQVCRTKVIDLSEGISQHAWYPCTISYPYSQLAQTTFWLRAYFSQPMVAAAVIVHLVTDGTYYGDQKQETISVQLLDTKDQSHDLGLHVLSCRNNPLIIPVVHDLSQPFYHSQAVRVSFSSPLVAISGVALRSFDNFDPVTLSSCQRGETYSPAEQSCVHFACEKTDCPELAVENASLNCSSSDRYHGAQCTVSCRTGYVLQIRRDDELIKSQTGPSVTVTCTEGKWNKQVACEPVDCSIPDHHQVYAASFSCPEGTTFGSQCSFQCRHPAQLKGNNSLLTCMEDGLWSFPEALCELMCLAPPPVPNADLQTARCRENKHKVGSFCKYKCKPGYHVPGSSRKSKKRAFKTQCTQDGSWQEGACVPVTCDPPPPKFHGLYQCTNGFQFNSECRIKCEDSDASQGLGSNVIHCRKDGTWNGSFHVCQEMQGQCSVPNELNSNLKLQCPDGYAIGSECATSCLDHNSESIILPMNVTVRDIPHWLNPTRVERVVCTAGLKWYPHPALIHCVKGCEPFMGDNYCDAINNRAFCNYDGGDCCTSTVKTKKVTPFPMSCDLQGDCACRDPQAQEHSRKDLRGYSHG"}, "B2": {"name": "human recombinant PAPP-A (protein)", "chain": "EARGATEEPSPPSRALYFSGRGEQLRLRADLELPRDAFTLQVWLRAEGGQRSPAVITGLYDKCSYISRDRGWVVGIHTISDQDNKDPRYFFSLKTDRARQVTTINAHRSYLPGQWVYLAATYDGQFMKLYVNGAQVATSGEQVGGIFSPLTQKCKVLMLGGSALNHNYRGYIEHFSLWKVARTQREILSDMETHGAHTALPQLLLQENWDNVKHAWSPMKDGSSPKVEFSNAHGFLLDTSLEPPLCGQTLCDNTEVIASYNQLSSFRQPKVVRYRVVNLYEDDHKNPTVTREQVDFQHHQLAEAFKQYNISWELDVLEVSNSSLRRRLILANCDISKIGDENCDPECNHTLTGHDGGDCRHLRHPAFVKKQHNGVCDMDCNYERFNFDGGECCDPEITNVTQTCFDPDSPHRAYLDVNELKNILKLDGSTHLNIFFAKSSEEELAGVATWPWDKEALMHLGGIVLNPSFYGMPGHTHTMIHEIGHSLGLYHVFRGISEIQSCSDPCMETEPSFETGDLCNDTNPAPKHKSCGDPGPGNDTCGFHSFFNTPYNNFMSYADDDCTDSFTPNQVARMHCYLDLVYQGWQPSRKPAPVALAPQVLGHTTDSVTLEWFPPIDGHFFERELGSACHLCLEGRILVQYASNASSPMPCSPSGHWSPREAEGHPDVEQPCKSSVRTWSPNSAVNPHTVPPACPEPQGCYLELEFLYPLVPESLTIWVTFVSTDWDSSGAVNDIKLLAVSGKNISLGPQNVFCDVPLTIRLWDVGEEVYGIQIYTLDEHLEIDAAMLTSTADTPLCLQCKPLKYKVVRDPPLQMDVASILHLNRKFVDMDLNLGSVYQYWVITISGTEESEPSPAVTYIHGSGYCGDGIIQKDQGEQCDDMNKINGDGCSLFCRQEVSFNCIDEPSRCYFHDGDGVCEEFEQKTSIKDCGVYTPQGFLDQWASNASVSHQDQQCPGWVIIGQPAASQVCRTKVIDLSEGISQHAWYPCTISYPYSQLAQTTFWLRAYFSQPMVAAAVIVHLVTDGTYYGDQKQETISVQLLDTKDQSHDLGLHVLSCRNNPLIIPVVHDLSQPFYHSQAVRVSFSSPLVAISGVALRSFDNFDPVTLSSCQRGETYSPAEQSCVHFACEKTDCPELAVENASLNCSSSDRYHGAQCTVSCRTGYVLQIRRDDELIKSQTGPSVTVTCTEGKWNKQVACEPVDCSIPDHHQVYAASFSCPEGTTFGSQCSFQCRHPAQLKGNNSLLTCMEDGLWSFPEALCELMCLAPPPVPNADLQTARCRENKHKVGSFCKYKCKPGYHVPGSSRKSKKRAFKTQCTQDGSWQEGACVPVTCDPPPPKFHGLYQCTNGFQFNSECRIKCEDSDASQGLGSNVIHCRKDGTWNGSFHVCQEMQGQCSVPNELNSNLKLQCPDGYAIGSECATSCLDHNSESIILPMNVTVRDIPHWLNPTRVERVVCTAGLKWYPHPALIHCVKGCEPFMGDNYCDAINNRAFCNYDGGDCCTSTVKTKKVTPFPMSCDLQGDCACRDPQAQEHSRKDLRGYSHG"}}, "key": {"[1]": {"target": "T1, full-length human recombinant IGFBP-4", "T1 chain": "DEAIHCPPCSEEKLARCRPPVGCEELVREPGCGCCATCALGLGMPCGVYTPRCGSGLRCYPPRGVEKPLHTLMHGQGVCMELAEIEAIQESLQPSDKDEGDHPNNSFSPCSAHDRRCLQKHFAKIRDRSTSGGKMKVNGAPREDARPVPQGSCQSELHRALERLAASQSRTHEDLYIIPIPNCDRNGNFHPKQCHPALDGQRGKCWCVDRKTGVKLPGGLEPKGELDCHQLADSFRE"}, "[2]": {"target": "full-length human recombinant IGFBP-5", "sequence (chain, as listed by the source)": "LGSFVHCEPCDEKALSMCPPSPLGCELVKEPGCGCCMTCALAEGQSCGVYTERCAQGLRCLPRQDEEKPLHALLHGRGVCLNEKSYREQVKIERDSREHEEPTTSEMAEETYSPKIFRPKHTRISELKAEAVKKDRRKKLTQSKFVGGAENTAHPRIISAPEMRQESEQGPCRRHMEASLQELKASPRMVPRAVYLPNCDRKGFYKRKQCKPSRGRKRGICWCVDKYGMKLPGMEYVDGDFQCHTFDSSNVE"}}}
{"protein": "B1", "values": [{"measurement": "proteolytic cleavage of IGFBP-4, Western blotting", "setting": "[1]", "value": "atherosclerotic form of PAPP-A was shown to cleave IGFBP-4 with the same efficiency as recombinant PAPP-A"}]}
{"protein": "B2", "values": [{"measurement": "proteolytic cleavage of IGFBP-4, Western blotting", "setting": "[1]", "value": "Western blotting detection of proteolytic fragments of IGFBP-4 demonstrating PAPP-A protease activity"}, {"measurement": "proteolytic cleavage of IGFBP-5, SDS-PAGE with Coomassie staining", "setting": "[2]", "value": "PAPP-A-dependent cleavage of IGFBP-5 determined by sodium dodecyl sulphate polyacrylamide gel electrophoresis"}]}
